Reference: patent US20090111753A1, “Nogo-A Polypeptide Fragments, Variant Nogo Receptor-1 Polypeptides, and Uses Thereof” (Yale University, priority 2004, published 2009)
Where a chain is given by its changes, count along the chain named.

B1: 114, 117: human NgR1 mutant, listed residues mutated to alanine (protein)
chain: CPGACVCYNEPKVTTSCPQQGLQAVPVGIPAASQRIFLHGNRISHVPAASFRACRNLTILWLHSNVLARIDAAAFTGLALLEQLDLSANAALRSVDPATFHGLGRLHTLHLDRCGLQELGPGLFRGLAALQYLYLQDNALQALPDDTFRDLGNLTHLFLHGNRISSVPERAFRGLHSLDRLLLHQNRVAHVHPHAFRDLGRLMTLYLFANNLSALPTEALAPLRALQYLRLNDNPWVCDCRARPLWAWLQKFRGSSSEVPCSLPQRLAGRDLKRLAANDLQGCAVATGPYHPIWTGRATDEEPLGLPKCCQPDAADKASVLEPGRPASAGNALKGRVPPGDSPPGNGSGPRHINDSPFGTLPGSAEPPLTAVRPEGSEPPGFPTSGPRRRPGCSRKNRTRSHCRLGQAGSGGGGTGDSEGSGALPSLTCSLTPLGLALVLWTVLGPC
B2: 127, 151: human NgR1 mutant, listed residues mutated to alanine (protein)
chain: B1 chain with A88D, A91Q, H101A, R125A
B3: 127, 176: human NgR1 mutant, listed residues mutated to alanine (protein)
chain: B1 chain with A88D, A91Q, H101A, D150A
B4: 143, 144: human NgR1 mutant, listed residues mutated to alanine (protein)
chain: B1 chain with A88D, A91Q, Q117A, E118A
B5: 189, 191: human NgR1 mutant, listed residues mutated to alanine (protein)
chain: B1 chain with A88D, A91Q, R163A, S165A
B6: 196, 199: human NgR1 mutant, listed residues mutated to alanine (protein)
chain: B1 chain with A88D, A91Q, R170A, R173A
B7: 202, 205: human NgR1 mutant, listed residues mutated to alanine (protein)
chain: B1 chain with A88D, A91Q, H176A, D179A
B8: 267, 269: human NgR1 mutant, listed residues mutated to alanine (protein)
chain: B1 chain with A88D, A91Q, R241A, R243A
B9: 277, 279: human NgR1 mutant, listed residues mutated to alanine (protein)
chain: B1 chain with A88D, A91Q, K251A, R253A
B10: 189, 191, 237: human NgR1 mutant, listed residues mutated to alanine (protein)
chain: B1 chain with A88D, A91Q, R163A, S165A, N211A
B11: 189, 191, 284: human NgR1 mutant, listed residues mutated to alanine (protein)
chain: B1 chain with A88D, A91Q, R163A, S165A, E258A
B12: 202, 205, 227: human NgR1 mutant, listed residues mutated to alanine (protein)
chain: B1 chain with A88D, A91Q, H176A, D179A, R201A
B13: 202, 205, 250: human NgR1 mutant, listed residues mutated to alanine (protein)
chain: B1 chain with A88D, A91Q, H176A, D179A, R224A
B14: 296, 297, 300: human NgR1 mutant, listed residues mutated to alanine (protein)
chain: B1 chain with A88D, A91Q, R270A, D271A, R274A
B15: 171, 172, 175, 176: human NgR1 mutant, listed residues mutated to alanine (protein)
chain: B1 chain with A88D, A91Q, D145A, D146A, R149A, D150A
B16: 292, 296, 297, 300: human NgR1 mutant, listed residues mutated to alanine (protein)
chain: B1 chain with A88D, A91Q, R266A, R270A, D271A, R274A
B17: 171, 172, 175, 176, 196, 199: human NgR1 mutant, listed residues mutated to alanine (protein)
chain: B1 chain with A88D, A91Q, D145A, D146A, R149A, D150A, R170A, R173A

Tested on: NgR ligands
Experiment: Binding of alanine substituted NgR mutants to NgR ligands, summary categories
Details: AP-Nogo66, AP-B4C, AP-B4C66, AP-Lingo-1, AP-OMgp and AP-MAG; compared to wild type NgR
Excerpt: To better define how multiple ligands bind to the NgR protein, we examined a series of Ala-substituted NgR for ligand binding activity. NgR mutagenesis was done using the Quick Change Multisite Directed Mutagenesis Kit (Stratagene catalog #200514). Human NgR1 was used as a template. Ala substitutions were generated for each of the charged residues predicted to be solvent accessible at the surface of the ligand binding domain of NgR (Barton, W. A., et al., Embo J. 22:3291-3302 (2003); He, X. L., et al., Neuron 38:177-185 (2003)). We generated mutants in which 1-8 surface residues localized within 5 A of one another were Ala-substituted. Because of the coiling nature of the LRR structure, as residues juxtaposed on the protein surface are commonly separated by approximately 25 residues in the primary structure. In addition to mutations in specific charged surface patches, other mutations were targeted to glycosylation sites and to regions predicted to be involved in ligand binding based on the NgR structure (Barton, W. A., et al., Embo J. 22:3291-3302 (2003); He, X. L., et al., Neuron 38:177-185 (2003)). In addition, a variant corresponding to a human polymorphism was examined (D259N). None of the mutations altered the Leu residues that define the LRR structure itself or the Cys residues critical in the amino and carboxyl terminal capping domains. The vast majority of such Ala surface substitution mutants were expressed as immunoreactive polypeptides with a molecular weight and an expression level indistinguishable from wild type NgR (FIG. 4C and data not shown).
This collection of 74 individual NgR mutants was interrogated for AP-Nogo-66, AP-Amino-Nogo-B4C, AP-MAG, AP-OMgp, and AP-Lingo-1 binding. AP-Nogo66, AP-MAG, AP-OMGP and AP-Lingo-1 constructs are described elsewhere (Fournier, A. E., et al., Nature 409:341-346 (2001); Liu, B. P., et al., Science 297:1190-1193 (2002); Mi, S., et al., Nat. Neurosci. 7:221-228 (2004); Wang, K. C., et al., Nature 417:941-944 (2002b)). The properties of the NgR mutants fell into one of three major categories (Table II and FIG. 5). A number of Ala substituted NgR polypeptides bound all of the ligands at wild type levels. […] In addition, a significant extent of the concave surface is dispensable for ligand binding.
Alanine substituted NgR mutants were tested for their binding to AP-Nogo66, AP-B4C, AP-B4C66, AP-Lingo-1, AP-OMgp and AP-MAG and they fall into three categories: (1) Mutants that lose binding to all NgR ligands. (2) Mutants that still maintain binding to all NgR ligands. […] The D259N mutant is an asparagine substitution to mimic a human polymorphism.

Ligand binding category of NgR mutant (Table II), Binding to all ligands:
B1
B2
B3
B4
B5
B6
B7
B8
B9
B10
B11
B12
B13
B14
B15
B16
B17
